From US9803013B2, “Biological materials and uses thereof” (BioInvent International AB, priority 2005, dated 2017)

What was measured:
BJAB [1] = test: IgG binding to B lymphoma cell line, flow cytometry MFI; parameters: species or system human; conditions: Burkitt's Lymphoma, control FITC-8 IgG MFI subtracted
Procedure: (§1) • ^aApoptosis Induction; determined by percentage of viable cells after 6 hour incubation with any of the human antibodies, crosslinked with Goat anti-Human (gamma) Fc specific antibody; −, viability not affected; +, 95-80%; ++, 79-60%; +++, 59-40% viable cells compared to control (human FITC-8 IgG1). […] The cell line dependent MFI value of control human FITC-8 IgG antibody was subtracted from the MFI of each human antibody.

CL-01 [2] = test: as above; parameters: species or system human; conditions: CL-01, Burkitt's Lymphoma; control FITC-8 IgG MFI subtracted
Procedure: as §1

DOHH-2 [3] = test: as above; parameters: species or system human; conditions: DOHH-2, Follicular Lymphoma; control FITC-8 IgG MFI subtracted
Procedure: as §1

Daudi [4] = test: as above; parameters: species or system human; conditions: Burkitt's Lymphoma, control FITC-8 IgG MFI subtracted
Procedure: as §1

Granta 519 [5] = test: as above; parameters: species or system human; conditions: Granta 519, Mantle cell Lymphoma; control FITC-8 IgG MFI subtracted
Procedure: as §1

Jeko-1 [6] = test: as above; parameters: species or system human; conditions: Jeko-1, Mantle cell Lymphoma; control FITC-8 IgG MFI subtracted
Procedure: as §1

NCEB-1 [7] = test: as above; parameters: species or system human; conditions: NCEB-1, Mantle cell Lymphoma; control FITC-8 IgG MFI subtracted
Procedure: as §1

Raji [8] = test: as above; parameters: species or system human; conditions: Burkitt's Lymphoma, control FITC-8 IgG MFI subtracted
Procedure: as §1

Ramos [9] = test: as above; parameters: species or system human; conditions: Burkitt's Lymphoma, control FITC-8 IgG MFI subtracted
Procedure: as §1

SC-1 [10] = test: as above; parameters: species or system human; conditions: SC-1, Follicular Lymphoma; control FITC-8 IgG MFI subtracted
Procedure: as §1

WSU-NHL [11] = test: as above; parameters: species or system human; conditions: Follicular Lymphoma, control FITC-8 IgG MFI subtracted
Procedure: as §1

BJAB [12] = test: Apoptosis induction by cross-linked IgG (Annexin V/PI); type: cell-based, human; conditions: viable cells after 6 hour incubation, crosslinked, compared to control FITC-8 IgG1
Procedure: (§2) 2×10^5 B lymphoma cells (Raji or Ramos) or Jurkat T cells were incubated with serially diluted and detoxified scFv's in culture medium for 1 h on ice.
(§3) When whole IgGs were used for apoptosis induction, cross-linking reagent was replaced by goat Fab′2 anti-human Fc γ antibody (Jackson ImmunoResearch) with minimal cross-reactivity with non-IgG antibody isotypes (to avoid unspecific cross-linking of endogenous B lymphoma associated surface immunoglobulins) and incubated, as described above, for 6 h.
(§4) Apoptotic cells were, unless otherwise stated, detected by combined staining with Annexin V Alexa Fluor 488 (AV) and Propidium Iodide (PI) (both from Molecular Probes, Invitrogen) and subsequent flow-cytometric analysis, Cells were defined as viable (AV−/PI−), early apoptotic (AV+/PI−) or late apoptotic/necrotic (AV+/PI+). AV and PI signals were recorded in the FL1 and FL2 or FL3 channels (as indicated in the text), respectively, using a FACSCalibur instrument (BD Biosciences).
as §1

CL-01 [13] = test: as above; type: cell-based, human; conditions: viable cells after 6 hour incubation, crosslinked, compared to control FITC-8 IgG1
Procedure: as §2, §3, §4, §1

DOHH-2 [14] = test: as above; type: cell-based, human; conditions: viable cells after 6 hour incubation, crosslinked, compared to control FITC-8 IgG1
Procedure: as §2, §3, §4, §1

Granta 519 [15] = test: as above; type: cell-based, human; conditions: viable cells after 6 hour incubation, crosslinked, compared to control FITC-8 IgG1
Procedure: as §2, §3, §4, §1

JVM-2 = test: as above; type: cell-based, human; conditions: viable cells after 6 hour incubation, crosslinked, compared to control FITC-8 IgG1
Procedure: as §2, §3, §4, §1

Jeko-1 [16] = test: as above; type: cell-based, human; conditions: viable cells after 6 hour incubation, crosslinked, compared to control FITC-8 IgG1
Procedure: as §2, §3, §4, §1

MC/CAR = test: as above; type: cell-based, human; conditions: viable cells after 6 hour incubation, crosslinked, compared to control FITC-8 IgG1
Procedure: as §2, §3, §4, §1

NCEB-1 [17] = test: as above; type: cell-based, human; conditions: viable cells after 6 hour incubation, crosslinked, compared to control FITC-8 IgG1
Procedure: as §2, §3, §4, §1

RL = test: as above; type: cell-based, human; conditions: viable cells after 6 hour incubation, crosslinked, compared to control FITC-8 IgG1
Procedure: as §2, §3, §4, §1

Rec-1 = test: as above; type: cell-based, human; conditions: viable cells after 6 hour incubation, crosslinked, compared to control FITC-8 IgG1
Procedure: as §2, §3, §4, §1

Reh/KM-3 = test: as above; type: cell-based, human; conditions: viable cells after 6 hour incubation, crosslinked, compared to control FITC-8 IgG1
Procedure: as §2, §3, §4, §1

SC-1 [18] = test: as above; type: cell-based, human; conditions: viable cells after 6 hour incubation, crosslinked, compared to control FITC-8 IgG1
Procedure: as §2, §3, §4, §1

SP-53 = test: as above; type: cell-based, human; conditions: viable cells after 6 hour incubation, crosslinked, compared to control FITC-8 IgG1
Procedure: as §2, §3, §4, §1

WSU-NHL [19] = test: as above; type: cell-based, human; conditions: viable cells after 6 hour incubation, crosslinked, compared to control FITC-8 IgG1
Procedure: as §2, §3, §4, §1

Daudi [20] = test: as above; type: cell-based, human; conditions: for Apoptosis Induction: Daudi, viable cells after 6 hour incubation, crosslinked, compared to control FITC-8 IgG1
Procedure: as §2, §3, §4, §1
(§5) BI-505 receptor occupancy was studied following FACS analyses of tumor cells incubated with increasing concentrations of BI-505 in vitro. Briefly, following pre-blocking of tumor cell FcγR with 1 mg/ml human IgG on ice for 15 min, tumor cells were incubated with 10-fold serially diluted (10 μg/ml to 0.00001 μg/ml) AF647-BI505 and surface bound BI-505 was recorded as the mean fluorescence intensities (MFI) picked up in the FL4 channel of a FACSCalibur instrument. The experiment was repeated three times and mean MFI values were calculated and plotted as a function of antibody concentration. A binding saturation curve was generated by plotting mean MFI values as a function of BI-505 concentration. The curve was fitted using a five-parameter log-log curve and XLfit software. BI-505 concentration dependent PCD was calculated by plotting the percentage of maximal tumor PCD in vitro as a function of BI-505 concentration in a manner analogous to that described for BI-505 receptor occupancy. Briefly, tumor cells were cultured with increasing concentrations of BI-505 in the presence of hyper-cross-linking antibody reagent for 24 hr, and PCD was monitored after combined staining with Annexin V/AF488 and propidium iodide using flow cytometry. Cells received treatment in triplicate and the experiment was repeated three to five times. Mean percentage of maximal PCD was then plotted as a function of BI-505 concentration and was fitted using a five parameter log-log curve and XLfit software. In vitro PCD and in vivo anti-tumor activity were plotted as a function of receptor occupancy using curve fitting equations and data generated and described above.

Raji [21] = test: as above; type: cell-based, human; conditions: for Apoptosis Induction: Raji, viable cells after 6 hour incubation, crosslinked, compared to control FITC-8 IgG1
Procedure: as §2, §3, §4, §1, §5

Ramos [22] = test: as above; type: cell-based, human; conditions: for Apoptosis Induction: Ramos, viable cells after 6 hour incubation, crosslinked, compared to control FITC-8 IgG1
Procedure: as §2, §3, §4, §1, §5

B1: B11: fully human IgG1 antibody specific for ICAM-1; VH and VL sequences of FIG. 10 (SEQ ID NOs. 6 and 8) (antibody, listed as Homo sapiens, V domains shown)
VH: EVQLLESGGGLVQPGGSLRLSCAASGFTFSNAWMSWVRQAPGKGLEWVAFIWYDGSNKYYADSVKGRFTISRDNSKNTLYLQMNSLRAEDTAVYYCARYSGWYFDYWGQGTLVTVSS
VL: QSVLTQPPSASGTPGQRVTISCTGSSSNIGAGYDVHWYQQLPGTAPKLLIYDNNNRPSGVPDRFSGSKSGTSASLAISGLRSEDEADYYCQSYDSSLSAWLFGGGTKLTVLG
BJAB [1]
  MFI: 310
CL-01 [2]
  MFI: 600
DOHH-2 [3]
  MFI: 100
Daudi [4]
  MFI: 150
Granta 519 [5]
  MFI: 260
Jeko-1 [6]
  MFI: 30
NCEB-1 [7]
  MFI: 340
Raji [8]
  MFI: 420
Ramos [9]
  MFI: 100
SC-1 [10]
  MFI: 0
WSU-NHL [11]
  MFI: 0
BJAB [12]
  Apoptosis Induction: + (95-80%)
CL-01 [13]
  Apoptosis Induction: ++ (79-60%)
DOHH-2 [14]
  Apoptosis Induction: −
Granta 519 [15]
  Apoptosis Induction: + (95-80%)
JVM-2
  Apoptosis Induction: −
Jeko-1 [16]
  Apoptosis Induction: + (95-80%)
MC/CAR
  Apoptosis Induction: + (95-80%)
NCEB-1 [17]
  Apoptosis Induction: + (95-80%)
RL
  Apoptosis Induction: −
Rec-1
  Apoptosis Induction: −
Reh/KM-3
  Apoptosis Induction: −
SC-1 [18]
  Apoptosis Induction: −
SP-53
  Apoptosis Induction: −
WSU-NHL [19]
  Apoptosis Induction: −
Daudi [20]
  Apoptosis Induction: + (95-80%)
Daudi [20]; ICAM-1-expressing Daudi lymphoma cells
  PCD induction: dose-dependently induced PCD
Raji [21]; ICAM-1-expressing Raji lymphoma cells
  PCD induction: dose-dependently induced PCD
Raji [21]
  Apoptosis Induction: + (95-80%)
Ramos [22]; ICAM-1-expressing Ramos lymphoma cells
  PCD induction: dose-dependently induced PCD
Ramos [22]
  Apoptosis Induction: ++ (79-60%)

B2: C11: fully human IgG1 antibody specific for surface IgM; VH and VL sequences of FIG. 11 (SEQ ID NOs. 10 and 12) (antibody, listed as Homo sapiens, V domains shown)
VH: EVQLLESGGGLVQPGGSLRLSCAASGFTFGSYEMNWVRQAPGKGLEWVSVIYSGGSTYYADSVEGRFTISRDNSKNTLYLQMNSLRAEDTAVYYCARDTNPYYYYGMDVWGQGTLVTVSS
VL: QSVLTQPPSASGTPGQRVTISCSGSSSNIGNNAVNWYQQLPGTAPKLLIYRNNQRPSGVPDRFSGSKSGTSASLAISGLRSEDEADYYCQSYDSSLNGQVFGGGTKLTVLG
BJAB [1]
  MFI: 510
CL-01 [2]
  MFI: 60
DOHH-2 [3]
  MFI: 90
Daudi [4]
  MFI: 450
Granta 519 [5]
  MFI: 60
Jeko-1 [6]
  MFI: 1040
NCEB-1 [7]
  MFI: 10
Raji [8]
  MFI: 20
Ramos [9]
  MFI: 240
SC-1 [10]
  MFI: 50
WSU-NHL [11]
  MFI: 60
BJAB [12]
  Apoptosis Induction: + (95-80%)
CL-01 [13]
  Apoptosis Induction: + (95-80%)
DOHH-2 [14]
  Apoptosis Induction: −
Granta 519 [15]
  Apoptosis Induction: + (95-80%)
JVM-2
  Apoptosis Induction: −
Jeko-1 [16]
  Apoptosis Induction: ++ (79-60%)
MC/CAR
  Apoptosis Induction: −
NCEB-1 [17]
  Apoptosis Induction: −
RL
  Apoptosis Induction: −
Rec-1
  Apoptosis Induction: −
Reh/KM-3
  Apoptosis Induction: −
SC-1 [18]
  Apoptosis Induction: −
SP-53
  Apoptosis Induction: −
WSU-NHL [19]
  Apoptosis Induction: −
Daudi [20]
  Apoptosis Induction: + (95-80%)
Raji [21]
  Apoptosis Induction: + (95-80%)
Ramos [22]
  Apoptosis Induction: +++ (59-40% viable cells compared to control (human FITC-8 IgG1))
